Data on 1 sequence can be found in the Immune Epitope Database (IEDB).

Some results are limits rather than exact numbers.

For one test, the target named is HLA-A*01:01. In words: IEDB peptide-MHC binding, purified MHC/direct/fluorescence; filed as Kd, often an IC50 or EC50 that approximates it; ≥ and ≤ were set here for values at or beyond the usual limits of such assays. The settings on record: source organism: Escherichia coli O157:H7.
Another test addresses HLA-A*02:01. The test is described as above. The settings on record: source organism: Escherichia coli O157:H7.
For another test, the target named is HLA-A*03:01. The test is described as above. The settings on record: source organism: Escherichia coli O157:H7.
A further test addresses HLA-A*11:01. The test is described as above. The settings on record: source organism: Escherichia coli O157:H7.
Another test addresses HLA-A*31:01. Described as above. Particulars: source organism: Escherichia coli O157:H7.
In a further test the target is HLA-A*68:02. The description is as above. Particulars: source organism: Escherichia coli O157:H7.
In the next test the target is HLA-A*69:01. Described as above. Particulars: source organism: Escherichia coli O157:H7.
A further test has as its target HLA-B*07:02. The test is described as above. The settings on record: source organism: Escherichia coli O157:H7.
The target in the next test is HLA-B*15:01. The description is as above. The settings on record: source organism: Escherichia coli O157:H7.
A further test deals with HLA-B*15:17. The test is described as above. The settings on record: source organism: Escherichia coli O157:H7.
A further test has as its target HLA-B*18:01. Described as above. Particulars: source organism: Escherichia coli O157:H7.
A further test addresses HLA-B*27:05. The test is described as above. The settings on record: source organism: Escherichia coli O157:H7.
For a further test, the target named is HLA-B*40:01. The test is described as above. The settings on record: source organism: Escherichia coli O157:H7.
The target of the next test is HLA-B*48:01. Described as above. Particulars: source organism: Escherichia coli O157:H7.
The target of another test is HLA-B*57:01. The test is described as above. The settings on record: source organism: Escherichia coli O157:H7.
For the next test, the target named is HLA-B*58:01. The test is described as above. Particulars: source organism: Escherichia coli O157:H7.
The target of another test is HLA-A*32:07. Kind of test: IEDB peptide-MHC binding, purified MHC/competitive/fluorescence; filed as Kd, often an IC50 or EC50 that approximates it; ≥ and ≤ were set here for values at or beyond the usual limits of such assays. The settings on record: source organism: Escherichia coli O139:H28 str. E24377A.
In the next test the target is HLA-B*15:42. Described as above. The settings on record: source organism: Escherichia coli O139:H28 str. E24377A.
Another test concerns the target HLA-B*39:01. The test is described as above. Particulars: source organism: Escherichia coli O139:H28 str. E24377A.
Another test concerns the target HLA-B*40:13. Described as above. The settings on record: source organism: Escherichia coli O139:H28 str. E24377A.
Another test concerns the target HLA-B*45:06. Described as above. Particulars: source organism: Escherichia coli O139:H28 str. E24377A.
Another test concerns the target HLA-B*83:01. The test is described as above. The settings on record: source organism: Escherichia coli O139:H28 str. E24377A.

For REWGWRIPF, the Kd with HLA-A*01:01, with HLA-A*02:01, with HLA-A*03:01, in the test with HLA-A*11:01, in the test with HLA-A*31:01 and with HLA-A*68:02 was at least 20000 nM throughout. Moreover, the Kd with HLA-A*69:01 was at least 20000 nM; with HLA-B*07:02, at least 20000 nM; in the test with HLA-B*15:01, 45 nM; with HLA-B*15:17, at least 20000 nM; with HLA-B*18:01, at most 1 nM; with HLA-B*27:05, 590 nM. In addition, the Kd with HLA-B*40:01 is at most 1 nM; with HLA-B*48:01, 149 nM; in the test with HLA-B*57:01, at least 20000 nM; in the test with HLA-B*58:01, at least 20000 nM; with HLA-A*32:07 it was 13.5 nM; with HLA-B*15:42 it was at least 5000 nM. Also, the Kd with HLA-B*39:01 was 135 nM; in the test with HLA-B*40:13, 61.1 nM; in the test with HLA-B*45:06 it was at least 5000 nM; in the test with HLA-B*83:01, at least 5000 nM.
